Measured values: the supplement of paper PMC5998384

Key:
HeLa Kyoto [1] = test: thermal stability score vs G1/S (z-score of summed log2 fold changes over temperatures); higher = more thermally stable than in G1/S
HeLa Kyoto [2] = test: solubility in G1/S (NP-40 vs SDS abundance) (log2 ratio); higher = more soluble; conditions: cell cycle stage: G1/S
HeLa Kyoto [3] = test: solubility change mitosis vs G1/S (difference of NP-40 vs SDS log2 ratios) (log2 ratio difference); higher = more soluble in mitosis
HeLa Kyoto [4] = test: melting temperature (median over replicates), in situ; higher = more thermally stable
[5] = cell cycle stage: early G1 (4.5 h after nocodazole release)
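For melting temperature (median over replicates), in situ in this document: HeLa Kyoto cells synchronized by double thymidine or nocodazole block, proteins quantified by TMT10plex mass spectrometry, three independent biological replicates.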
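For solubility change mitosis vs G1/S (difference of NP-40 vs SDS log2 ratios) in this document: synchronized HeLa Kyoto cells (double thymidine block for G1/S, nocodazole release for mitosis), protein amounts in NP-40 versus SDS lysates quantified by mass spectrometry, three biological replicates.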
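For solubility in G1/S (NP-40 vs SDS abundance) in this document: HeLa Kyoto cells arrested at G1/S by double thymidine block, proteins quantified by TMT10plex mass spectrometry in mild NP-40 versus SDS extracts, three biological replicates.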
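For thermal stability score vs G1/S (z-score of summed log2 fold changes over temperatures) in this document: synchronized HeLa Kyoto cells, proteins quantified by TMT10plex mass spectrometry, three biological replicates, mitosis taken 0.5 h after nocodazole release, G1/S directly after double thymidine block.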

| Sequence | thermal stability score (HeLa Kyoto [1]; [5]) | thermal stability score (HeLa Kyoto [1]; cell cycle stage: mitosis) | solubility in G1/S (log2) (HeLa Kyoto [2]) | solubility change mitosis (log2) (HeLa Kyoto [3]) | melting temperature (HeLa Kyoto [4]; cell cycle stage: G1/S) [°C] | melting temperature (HeLa Kyoto [4]; cell cycle stage: mitosis) [°C] |
| --- | --- | --- | --- | --- | --- | --- |
| MSEAGGRGCGSPVPQRARWRLVAATAAFCLVSATSVWTAGAEPMSREEKQKLGNQVLEMFDHAYGNYMEHAYPADELMPLTCRGRVRGQEPSRGDVDDALGKFSLTLIDSLDTLVVLNKTKEFEDAVRKVLRDVNLDNDVVVSVFETNIRVLGGLLGGHSLAIMLKEKGEYMQWYNDELLQMAKQLGYKLLPAFNTTSGLPYPRINLKFGIRKPEARTGTETDTCTACAGTLILEFAALSRFTGATIFEEYARKALDFLWEKRQRSSNLVGVTINIHTGDWVRKDSGVGAGIDSYYEYLLKAYVLLGDDSFLERFNTHYDAIMRYISQPPLLLDVHIHKPMLNARTWMDALLAFFPGLQVLKGDIRPAIETHEMLYQVIKKHNFLPEAFTTDFRVHWAQHPLRPEFAESTYFLYKATGDPYYLEVGKTLIENLNKYARVPCGFAAMKDVRTGSHEDRMDSFFLAEMFKYLYLLFADKEDIIFDIEDYIFTTEAHLLPLWLSTTNQSISKKNTTSEYTELDDSNFDWTCPNTQILFPNDPLYAQSIREPLKNVVDKSCPRGIIRVEESFRSGAKPPLRARDFMATNPEHLEILKKMGVSLIHLKDGRVQLVQHAIQAASSIDAEDGLRFMQEMIELSSQQQKEQQLPPRAVQIVSHPFFGRVVLTAGPAQFGLDLSKHKETRGFVASSKPSNGCSELTNPEAVMGKIALIQRGQCMFAEKARNIQNAGAIGGIVIDDNEGSSSDTAPLFQMAGDGKDTDDIKIPMLFLFSKEGSIILDAIREYEEVEVLLSDKAKDRDPEMENEEQPSSENDSQNQSGEQISSSSQEVDLVDQESSEENSLNSHPESLSLADMDNAASISPSEQTSNPTENHETTNLNGECTDLDNQLQEQSETEEDSNPNVSWGKKVQPIDSILADWNEDIEAFEMMEKDEL [EDEM3] | 0.67 | 0.929 | 0.311 | -0.156 | 53.5 | 53.7 |
| MSEAPRFFVGPEDTEINPGNYRHFFHHADEDDEEEDDSPPERQIVVGICSMAKKSKSKPMKEILERISLFKYITVVVFEEEVILNEPVENWPLCDCLISFHSKGFPLDKAVAYAKLRNPFVINDLNMQYLIQDRREVYSILQAEGILLPRYAILNRDPNNPKECNLIEGEDHVEVNGEVFQKPFVEKPVSAEDHNVYIYYPTSAGGGSQRLFRKIGSRSSVYSPESNVRKTGSYIYEEFMPTDGTDVKVYTVGPDYAHAEARKSPALDGKVERDSEGKEVRYPVILNAREKLIAWKVCLAFKQTVCGFDLLRANGQSYVCDVNGFSFVKNSMKYYDDCAKILGNIVMRELAPQFHIPWSIPLEAEDIPIVPTTSGTMMELRCVIAVIRHGDRTPKQKMKMEVRHQKFFDLFEKCDGYKSGKLKLKKPKQLQEVLDIARQLLMELGQNNDSEIEENKPKLEQLKTVLEMYGHFSGINRKVQLTYLPHGCPKTSSEEEDSRREEPSLLLVLKWGGELTPAGRVQAEELGRAFRCMYPGGQGDYAGFPGCGLLRLHSTYRHDLKIYASDEGRVQMTAAAFAKGLLALEGELTPILVQMVKSANMNGLLDSDSDSLSSCQQRVKARLHEILQKDRDFTAEDYEKLTPSGSISLIKSMHLIKNPVKTCDKVYSLIQSLTSQIRHRMEDPKSSDIQLYHSETLELMLRRWSKLEKDFKTKNGRYDISKIPDIYDCIKYDVQHNGSLKLENTMELYRLSKALADIVIPQEYGITKAEKLEIAKGYCTPLVRKIRSDLQRTQDDDTVNKLHPVYSRGVLSPERHVRTRLYFTSESHVHSLLSILRYGALCNESKDEQWKRAMDYLNVVNELNYMTQIVIMLYEDPNKDLSSEERFHVELHFSPGAKGCEEDKNLPSGYGYRPASRENEGRRPFKIDNDDEPHTSKRDEVDRAVILFKPMVSEPIHIHRKSPLPRSRKTATNDEESPLSVSSPEGTGTWLHYTSGVGTGRRRRRSGEQITSSPVSPKSLAFTSSIFGSWQQVVSENANYLRTPRTLVEQKQNPTVGSHCAGLFSTSVLGGSSSAPNLQDYARTHRKKLTSSGCIDDATRGSAVKRFSISFARHPTNGFELYSMVPSICPLETLHNALSLKQVDEFLASIASPSSDVPRKTAEISSTALRSSPIMRKKVSLNTYTPAKILPTPPATLKSTKASSKPATSGPSSAVVPNTSSRKKNITSKTETHEHKKNTGKKK [PPIP5K2] | 0.0139 | 0.108 | 0.0594 | -0.068 | 52.5 | 52.6 |
| MSEASSEDLVPPLEAGAAPYREEEEAAKKKKEKKKKSKGLANVFCVFTKGKKKKGQPSSAEPEDAAGSRQGLDGPPPTVEELKAALERGQLEAARPLLALERELAAAAAAGGVSEEELVRRQSKVEALYELLRDQVLGVLRRPLEAPPERLRQALAVVAEQEREDRQAAAAGPGTSGLAATRPRRWLQLWRRGVAEAAEERMGQRPAAGAEVPESVFLHLGRTMKEDLEAVVERLKPLFPAEFGVVAAYAESYHQHFAAHLAAVAQFELCERDTYMLLLWVQNLYPNDIINSPKLVGELQGMGLGSLLPPRQIRLLEATFLSSEAANVRELMDRALELEARRWAEDVPPQRLDGHCHSELAIDIIQITSQAQAKAESITLDLGSQIKRVLLVELPAFLRSYQRAFNEFLERGKQLTNYRANVIANINNCLSFRMSMEQNWQVPQDTLSLLLGPLGELKSHGFDTLLQNLHEDLKPLFKRFTHTRWAAPVETLENIIATVDTRLPEFSELQGCFREELMEALHLHLVKEYIIQLSKGRLVLKTAEQQQQLAGYILANADTIQHFCTQHGSPATWLQPALPTLAEIIRLQDPSAIKIEVATYATCYPDFSKGHLSAILAIKGNLSNSEVKRIRSILDVSMGAQEPSRPLFSLIKVG [TNFAIP2] | 0.545 | 1.06 | 0.296 | -0.0517 | 50.4 | 48.2 |
| MSEEQFGGDGAAAAATAAVGGSAGEQEGAMVAATQGAAAAAGSGAGTGGGTASGGTEGGSAESEGAKIDASKNEEDEGHSNSSPRHSEAATAQREEWKMFIGGLSWDTTKKDLKDYFSKFGEVVDCTLKLDPITGRSRGFGFVLFKESESVDKVMDQKEHKLNGKVIDPKRAKAMKTKEPVKKIFVGGLSPDTPEEKIREYFGGFGEVESIELPMDNKTNKRRGFCFITFKEEEPVKKIMEKKYHNVGLSKCEIKVAMSKEQYQQQQQWGSRGGFAGRARGRGGGPSQNWNQGYSNYWNQGYGNYGYNSQGYGGYGGYDYTGYNNYYGYGDYSNQQSGYGKVSRRGGHQNSYKPY [HNRNPD] | -3.11 | -2.98 | 0.068 | 0.191 | 55.6 | 54.9 |
| MSEGVDLIDIYADEEFNQDPEFNNTDQIDLYDDVLTATSQPSDDRSSSTEPPPPVRQEPSPKPNNKTPAILYTYSGLRNRRAAVYVGSFSWWTTDQQLIQVIRSIGVYDVVELKFAENRANGQSKGYAEVVVASENSVHKLLELLPGKVLNGEKVDVRPATRQNLSQFEAQARKRECVRVPRGGIPPRAHSRDSSDSADGRATPSENLVPSSARVDKPPSVLPYFNRPPSALPLMGLPPPPIPPPPPLSSSFGVPPPPPGIHYQHLMPPPPRLPPHLAVPPPGAIPPALHLNPAFFPPPNATVGPPPDTYMKASAPYNHHGSRDSGPPPSTVSEAEFEDIMKRNRAISSSAISKAVSGASAGDYSDAIETLLTAIAVIKQSRVANDERCRVLISSLKDCLHGIEAKSYSVGASGSSSRKRHRSRERSPSRSRESSRRHRDLLHNEDRHDDYFQERNREHERHRDRERDRHH [CPSF7] | -1.14 | -2.91 | -0.309 | 0.173 | 51.8 | 52.1 |
| MSEHVEPAAPGPGPNGGGGGPAPARGPRTPNLNPNPLINVRDRLFHALFFKMAVTYSRLFPPAFRRLFEFFVLLKALFVLFVLAYIHIVFSRSPINCLEHVRDKWPREGILRVEVRHNSSRAPVFLQFCDSGGRGSFPGLAVEPGSNLDMEDEEEEELTMEMFGNSSIKFELDIEPKVFKPPSSTEALNDSQEFPFPETPTKVWPQDEYIVEYSLEYGFLRLSQATRQRLSIPVMVVTLDPTRDQCFGDRFSRLLLDEFLGYDDILMSSVKGLAENEENKGFLRNVVSGEHYRFVSMWMARTSYLAAFAIMVIFTLSVSMLLRYSHHQIFVFIVDLLQMLEMNMAIAFPAAPLLTVILALVGMEAIMSEFFNDTTTAFYIILIVWLADQYDAICCHTSTSKRHWLRFFYLYHFAFYAYHYRFNGQYSSLALVTSWLFIQHSMIYFFHHYELPAILQQVRIQEMLLQAPPLGPGTPTALPDDMNNNSGAPATAPDSAGQPPALGPVSPGASGSPGPVAAAPSSLVAAAASVAAAAGGDLGWMAETAAIITDASFLSGLSASLLERRPASPLGPAGGLPHAPQDSVPPSDSAASDTTPLGAAVGGPSPASMAPTEAPSEVGS [TMEM259] | 0.29 | 0.308 | -0.252 | -0.025 | 54.7 | 54.2 |
| MSEKENNFPPLPKFIPVKPCFYQNFSDEIPVEHQVLVKRIYRLWMFYCATLGVNLIACLAWWIGGGSGTNFGLAFVWLLLFTPCGYVCWFRPVYKAFRADSSFNFMAFFFIFGAQFVLTVIQAIGFSGWGACGWLSAIGFFQYSPGAAVVMLLPAIMFSVSAAMMAIAIMKVHRIYRGAGGSFQKAQTEWNTGTWRNPPSREAQYNNFSGNSLPEYPTVPSYPGSGQWP [SCAMP4] | -1.67 | -2.1 | -0.117 | 0.144 | 57 | 60.3 |
| MSELPGDVRAFLREHPSLRLQTDARKVRCILTGHELPCRLPELQVYTRGKKYQRLVRASPAFDYAEFEPHIVPSTKNPHQLFCKLTLRHINKCPEHVLRHTQGRRYQRALCKYEECQKQGVEYVPACLVHRRRRREDQMDGDGPRPREAFWEPTSSDEGGAASDDSMTDLYPPELFTRKDLGSTEDGDGTDDFLTDKEDEKAKPPREKATDEGRRETTVYRGLVQKRGKKQLGSLKKKFKSHHRKPKSFSSCKQPG [SURF2] | 0.779 | 0.703 | 0.0911 | 0.0916 | 50.7 | 50.3 |
| MSENLDNEGPKPMESCGQESSSALSCPTVSVPPAAPAALEEVEKEGAGAATGPGPQPGLYSYIRDDLFTSEIFKLELQNVPRHASFSDVRRFLGRFGLQPHKTKLFGQPPCAFVTFRSAAERDKALRVLHGALWKGRPLSVRLARPKADPMARRRRQEGESEPPVTRVADVVTPLWTVPYAEQLERKQLECEQVLQKLAKEIGSTNRALLPWLLEQRHKHNKACCPLEGVRPSPQQTEYRNKCEFLVGVGVDGEDNTVGCRLGKYKGGTCAVAAPFDTVHIPEATKQVVKAFQEFIRSTPYSAYDPETYTGHWKQLTVRTSRRHQAMAIAYFHPQKLSPEELAELKTSLAQHFTAGPGRASGVTCLYFVEEGQRKTPSQEGLPLEHVAGDRCIHEDLLGLTFRISPHAFFQVNTPAAEVLYTVIQDWAQLDAGSMVLDVCCGTGTIGLALARKVKRVIGVELCPEAVEDARVNAQDNELSNVEFHCGRAEDLVPTLVSRLASQHLVAILDPPRAGLHSKVILAIRRAKNLRRLLYVSCNPRAAMGNFVDLCRAPSNRVKGIPFRPVKAVAVDLFPQTPHCEMLILFERVEHPNGTGVLGPHSPPAQPTPGPPDNTLQETGTFPSS [TRMT2A] | 2.34 | 3.51 | -0.136 | 0.169 | 48.9 | 49.8 |
